For test [1], the target named is Acro COVID S1 (S1N-C82E8) (SARS-CoV-2, UniProt P0DTC2 16-685). As to the kind of experiment: phage ELISA.
Test [2] concerns the target CV S-protein construct 6 trimer TP31001F (SARS-CoV-2, UniProt P0DTC2 14-1208). The experiment in a line: SPR.

Experimental findings from patent publication US20210355194A1 (TWIST BIOSCIENCE, published 2021) are described below.

B1: variant 3-10 (antibody, V domains shown)
VH: EVQLLESGGGLVQPGGSLRLSCAASGFTFRSHAMSWVRQAPGKGLEWVSSISGGGASTYYADSVKGRFTISRDNSKNTLYLQMNSLRAEDTAVYYCARVKYLTTSSGWPRPYFDNWGQGTLVTVSS
VL: DIQMTQSPSSLSASVGDRVTITCRASQSIRKYLNWYQQKPGKAPKLLIYASSTLQRGVPSRFSGSGSGTDFTLTISSLQPEDFATYYCQQSLSTPFTFGGGTKVEIK
Consider B1, for which the “specificity ELISA, fold over background” value in test [1] was determined as 1.2 fold over background.

B2: variant 5-47 (Fc fusion)
VHH: EVQLVESGGGLVQPGGSLRLSCAASGFTFGSYDMGWFRQAPGKEREFVTAINWSGARTAYADSVKGRFTISADNSKNTAYLQMNSLKPEDTAVYYCAARSVYSYEYNWGQGTLVTVSS
In test [2], B2 yielded a Kd of 0.7 nM.

B3: variant 6-24 (Fc fusion)
VHH: EVQLVESGGGLVQPGGSLRLSCAASGFTLDYYAMGWFRQAPGKEREFVAAINWSGDNTHYADSVKGRFTISADNSKNTAYLQMNSLKPEDTAVYYCARAPFYCTTTKCQDNYYYMDVWGQGTLVTVSS
In test [2], B3 yielded a Kd of 0.2 nM.

B4: variant 2-1 (antibody, V domains shown)
VH: EVQLLESGGGLVQPGGSLRLSCAASGFTFSNYATDWVRQAPGKGLEWVSIISGSGGATYYADSVKGRFTISRDNSKNTLYLQMNSLRAEDTAVYYCAKGGYCSSDTCWWEYWLDPWGQGTLVTVSS
VL: DIQMTQSPSSLSASVGDRVTITCRASQSIHRFLNWYQQKPGKAPKLLIYAASNLHSGVPSRFSGSGSGTDFTLTISSLQPEDFATYYCQQSYGLPPTFGQGTKVEIK
With B4, the “specificity ELISA, fold over background” value in test [1] stood at 39.3 fold over background.

B5: variant 2-4 (antibody, V domains shown)
VH: EVQLLESGGGLVQPGGSLRLSCAASGFTFSDFAMAWVRQAPGKGLEWVSAISGSGDITYYADSVKGRFTISRDNSKNTLYLQMNSLRAEDTAVYYCAREADGLHSPWHFDLWGQGTLVTVSS
VL: DIQMTQSPSSLSASVGDRVTITCRASQSIDTYLNWYQQKPGKAPKLLIYAASALASGVPSRFSGSGSGTDFTLTISSLQPEDFATYYCQQSYSAPPYTFGQGTKVEIK
As to B5, the “specificity ELISA, fold over background” value in test [1] stood at 37.7 fold over background.

B6: variant 2-12 (antibody, V domains shown)
VH: EVQLLESGGGLVQPGGSLRLSCAASGFTFSDYPMNWVRQAPGKGLEWVSTISGSGGITFYADSVKGRFTISRDNSKNTLYLQMNSLRAEDTAVYYCVRHDEYSFDYWGQGTLVTVSS
VL: DIQMTQSPSSLSASVGDRVTITCRASQSIDNYLNWYQQKPGKAPKLLIYGVSALQSGVPSRFSGSGSGTDFTLTISSLQPEDFATYYCQQSHSAPPYFFGQGTKVEIK
For the molecule B6, the “specificity ELISA, fold over background” value in test [1] is 39.8 fold over background.

B7: variant 2-5 (antibody, V domains shown)
VH: EVQLLESGGGLVQPGGSLRLSCAASGFTFSDFAMAWVRQAPGKGLEWVSAISGSGDITYYADSVKGRFTISRDNSKNTLYLQMNSLRAEDTAVYYCAREADGLHSPWHFDLWGQGTLVTVSS
VL: DIQMTQSPSSLSASVGDRVTITCRASQSIHTYLNWYQQKPGKAPKLLIYAASALASGVPSRFSGSGSGTDFTLTISSLQPEDFATYYCQQSYSAPPYTFGQGTKVEIK
With B7, in test [1], the “specificity ELISA, fold over background” value was determined as 38.3 fold over background.

B8: variant 2-13 (antibody, V domains shown)
VH: EVQLLESGGGLVQPGGSLRLSCAASGFTFSDYPMNWVRQAPGKGLEWVSAISGSGDNTYYADSVKGRFTISRDNSKNTLYLQMNSLRAEDTAVYYCVRHDEYSFDYWGQGTLVTVSS
VL: DIQMTQSPSSLSASVGDRVTITCRASQSIDTYLNWYQQKPGKAPKLLIYGASALESGVPSRFSGSGSGTDFTLTISSLQPEDFATYYCQQSHSAPPYFFGQGTKVEIK
In the case of B8, the “specificity ELISA, fold over background” value in test [1] came out at 27.3 fold over background.

B9: variant 5-56 (Fc fusion)
VHH: EVQLVESGGGLVQPGGSLRLSCAASGRTFSSNMGWFRQAPGKEREFVARIFGGDRTLYADSVKGRFTISADNSKNTAYLQMNSLKPEDTAVYYCADINGDWGQGTLVTVSS
In test [2], B9 had a Kd of 2.77 nM.

B10: variant 6-18 (Fc fusion)
VHH: EVQLVESGGGLVQPGGSLRLSCAASGLTFRNYAMGWFRQAPGKEREFIAGMMWSGGTTTYADSVKGRFTISADNSKNTAYLQMNSLKPEDTAVYYCAREGYYYDSSGYLNYFDYWGQGTLVTVSS
As to B10, the Kd in test [2] stood at 5.3 nM.

B11: variant 5-37 (Fc fusion)
VHH: EVQLVESGGGLVQPGGSLRLSCAASGSTFSINAMGWFRQAPGKEREFVGGISRSGATTNYADSVKGRFTISADNSKNTAYLQMNSLKPEDTAVYYCAADGVPEYSDYASGPVWGQGTLVTVSS
B11 yielded a Kd in test [2] of 1.8 nM.

B12: variant 6-22 (Fc fusion)
VHH: EVQLVESGGGLVQPGGSLRLSCAASGRTFSEVVMGWFRQAPGKEREFVATIHSSGSTSYADSVKGRFTISADNSKNTAYLQMNSLKPEDTAVYYCVRVTSDYSMDSWGQGTLVTVSS
B12 came in with a Kd in test [2] of 1.8 nM.

B13: variant 2-2 (antibody, V domains shown)
VH: EVQLLESGGGLVQPGGSLRLSCAASGFTFSRHAMNWVRQAPGKGLEWVSGISGSGDETYYADSVKGRFTISRDNSKNTLYLQMNSLRAEDTAVYYCARDLPASYYDSSGYYWHNGMDVWGQGTLVTVSS
VL: DIQMTQSPSSLSASVGDRVTITCRASQTINTYLNWYQQKPGKAPKLLIYSASTLQSGVPSRFSGSGSGTDFTLTISSLQPEDFATYYCQQSYSTFTFGQGTKVEIK
Take B13: the “specificity ELISA, fold over background” value in test [1] was 39.4 fold over background.

B14: variant 5-67 (Fc fusion)
VHH: EVQLVESGGGLVQPGGSLRLSCAASGFNVNDYAMGWFRQAPGKEREFVAGITSSVGVTNYADSVKGRFTISADNSKNTAYLQMNSLKPEDTAVYYCAADIFFVNWGRGTLVTVSS
With B14, binding in test [2] was put at a Kd of 1 nM.

B15: variant 6-37 (Fc fusion)
VHH: EVQLVESGGGLVQPGGSLRLSCAASGHTFSTSWMGWFRQAPGKEREFVATINSLGGTNYADSVKGRFTISADNSKNTAYLQMNSLKPEDTAVYYCARVSSGDYGMDVWGQGTLVTVSS
B15 came in with a Kd in test [2] of 0.7 nM. The Kd values of the last two molecules are within 1.5-fold of each other.

B16: variant 6-38 (Fc fusion)
VHH: EVQLVESGGGLVQPGGSLRLSCAASGNTFSGGFMGWFRQAPGKEREFVAVISSLSSKSYADSVKGRFTISADNSKNTAYLQMNSLKPEDTAVYYCAKVDSGYDYWGQGTLVTVSS
With B16, binding in test [2] was put at a Kd of 0.5 nM.

B17: variant 6-76 (Fc fusion)
VHH: EVQLVESGGGLVQPGGSLRLSCAASGLAFDFDGMGWFRQAPGKEREGVAAINSGGSTYYADSVKGRFTISADNSKNTAYLQMNSLKPEDTAVYYCARFFRAHDYWGQGTLVTVSS
Take B17: binding in test [2] was characterised by a dissociation constant (Kd) of 1.77 nM. Against the preceding molecule, the Kd is about 3.5-fold higher.

B18: variant 6-5 (Fc fusion)
VHH: EVQLVESGGGLVQPGGSLRLSCAASGRTFTMGWFRQAPGKEREFVASTNSAGSTNYADSVNGRFTISADNSKNTAYLQMNSLKPEDTAVYYCTTVDQYFDYWGQGTLVTVSS
Molecule B18 returned a Kd in test [2] of 0.8 nM. Compared with the last molecule, the Kd is about 2.2-fold lower.

B19: variant 5-32 (Fc fusion)
VHH: EVQLVESGGGLVQPGGSLRLSCAASGFTPDNYAMGWFRQAPGKEREFVAALGWSGVTTYHYYADSVKGRFTISADNSKNTAYLQMNSLKPEDTAVYYCASDESDAANWGQGTLVTVSS
In test [2], B19 gave a dissociation constant Kd of 0.1 nM.

B20: variant 5-60 (Fc fusion)
VHH: EVQLVESGGGLVQPGGSLRLSCAASGRSFSSHRMGWFRQAPGKEREFVAAIMWSGSHRNYADSVKGRFTISADNSKNTAYLQMNSLKPEDTAVYYCAAIAYEEGVYRWDWGQGTLVTVSS
Consider B20, for which, in test [2], the dissociation constant (Kd) was determined as 0.8 nM.

B21: variant 6-103 (Fc fusion)
VHH: EVQLVESGGGLVQPGGSLRLSCAASGRTSSPIAMGWFRQAPGKEREPVAVRWSDDYTYYADSVKGRFTISADNSKNTAYLQMNSLKPEDTAVYYCAKKLGGYYAFDIWGQGTLVTVSS
On to B21, for which, in test [2], the affinity, expressed as Kd, was 1 nM.

B22: variant 6-10 (Fc fusion)
VHH: EVQLVESGGGLVQPGGSLRLSCAASGSIASIHAMGWFRQAPGKEREFVAAISRSGGFGSYADSVKGRFTISADNSKNTAYLQMNSLKPEDTAVYYCARDDKYYDSSGYPAYFQHWGQGTLVTVSS
Regarding B22, in test [2], the Kd was 0.6 nM. This Kd lies about 1.7-fold lower than the previous one.

B23: variant 6-32 (Fc fusion)
VHH: EVQLVESGGGLVQPGGSLRLSCAASGFTLDYYDMGWFRQAPGKEREFVALISWSGGSTYYADSVKGRFTISADNSKNTAYLQMNSLKPEDTAVYYCATDFYGWGTRERDAFDIWGQGTLVTVSS
B23 displayed an equilibrium dissociation constant (Kd) in test [2] of 0.1 nM.

B24: variant 6-73 (Fc fusion)
VHH: EVQLVESGGGLVQPGGSLRLSCAASGHTFSGYAMGWFRQAPGKEREFVAVITREGSTYYADSVKGRFTISADNSKNTAYLQMNSLKPEDTAVYYCARLGGEGFDYWGQGTLVTVSS
On to B24, for which, in test [2], the Kd was determined as 0.52 nM.

B25: variant 6-2 (Fc fusion)
VHH: EVQLVESGGGLVQPGGSLRLSCAASGFTMSSSWMGWFRQAPGKEREFVTVISGVGTSYADSVKGRFTISADNSKNTAYLQMNSLKPEDTAVYYCARGPDSSGYGFDYWGQGTLVTVSS
B25 yielded a Kd in test [2] of 1.2 nM.

B26: variant 6-13 (Fc fusion)
VHH: EVQLVESGGGLVQPGGSLRLSCAASGLTFNDYAMGWFRQAPGKEREFVAHIPRSTYSPYYADSVKGRFTISADNSKNTAYLQMNSLKPEDTAVYYCAFLVGPQGVDHGAFDVWGQGTLVTVSS
B26 showed a Kd in test [2] of 0.6 nM.

B27: variant 6-55 (Fc fusion)
VHH: EVQLVESGGGLVQPGGSLRLSCAASGFTMSSSWMGWFRQAPGKEREFVARITSGGSTGYADSVKGRFTISADNSKNTAYLQMNSLKPEDTAVYYCASVDGYFDYWGQGTLVTVSS
For B27, the Kd in test [2] amounted to 0.3 nM. This Kd is about 2-fold lower than that of the molecule before.

B28: variant 6-52 (Fc fusion)
VHH: EVQLVESGGGLVQPGGSLRLSCAASGDTYGSYWMGWFRQAPGKEREVVAAITSGGSTVYADSVKGRFTISADNSKNTAYLQMNSLKPEDTAVYYCARVDSRFDYWGQGTLVTVSS
In turn, B28 returned a Kd in test [2] of 1.1 nM.
